One series in a line: Isoelectric point (pI). The format is physicochemical.
Series [1] can be described thus: Pharmacokinetics in mice, serum antibody by ELISA. The format is in vivo. Here is the method:
The pharmacokinetics of h7C3-3 and h7C3-4 were evaluated in B6 mice. B6 mice (n=6) were administered 10 mg/kg of test material (based on the antibody component) by tail vein injection. Blood samples were collected from each mouse via the saphenous vein at hour 1, 2, and 6, and at day 1, 2, 3, 4, 7, 9, 11, 14, 16, 18, 21, 23, 25, 35 and 42 post-injection, and serum samples were collected. Plasma concentrations of h7C3-3 and h7C3-4 were measured by IgG (Total) Human ELISA Kit (Invitrogen, BMS2091).

The next series concerns PC-3. In words: In vitro cell cytotoxicity assay (CellTiter-Glo). The format is cell-based. Here is the method: (§1) The number of living cells were determined using the CellTiter-Glo® Luminescent Cell Viability Assay (Promega G7571). Cells were plated in 96-well opaque Costar plates (Cat number 136101). In brief, 500-2500 cells in 90 μL media were added to each well in quadruplicate and allowed to adhere for 16 hours. Anti-NTSR1 (dose range: 0-500 nM), anti-NTSR1-MMAE (dose range: 0-500 nM) or Paclitaxel (dose range: 0-100 nM) were added in […] 72-120 hours, medium was removed, and 200 μL of CellTiter-Glo® viability reagent contain culture medium (1:1) was added to each well and placed on an orbital shaker in the dark for 2 minutes. The plate was allowed to sit at RT for 10 minutes before being read on a GloMax® Explorer Multimode Microplate Reader (GM3500).

Another series has as its system A549. In words: In vitro cell cytotoxicity assay (CellTiter-Glo). The format is cell-based. Here is the method: as §1
A general note: ATP-based viability assays read luminescence as a measure of living cells.

A further series addresses T1, NTSR1 on A549 cells (Homo sapiens, UniProt P30989).
T1 construct: endogenous in cells; host or cells: A549 (NSCLC)
In words: Flow cytometry (FACS) binding of anti-NTSR1 antibodies on A549 cells. To be noted: A549 cells, one hour incubation at 4° C. Here is the method:
A total of 1×10^6 cells were reacted with an anti-NTSR1 antibody in 100 μL of FACS buffer (PBS containing 0.5% BSA) for 60 minutes at 4° C. and washed two times to remove excess antibody. Secondary FITC (BD Pharmingen™) conjugated mouse anti-human IgG antibodies were incubated for an additional 60 minutes on ice. Cells were washed again and followed by an additional incubation with 1 ml PBS containing 0.5 mg/mL propidium iodide at 4° C. for 10 minutes. Data were collected on 10,000 living cells by FACS (Bio-Red S3e cell sorter). Fluorescence intensity from channel FL-1 was calculated with Flow Jo flow […] cytometry analysis software.
(In general: A flow cytometer gives signals particle by particle.)

For series [2], the system named is H1299 lung tumor xenograft. In words: H1299 lung tumor xenograft model. The format is in vivo, nude mice. From the text:
(§2) Immuodeficient male NU/NU nude mice (for H1299 and PC-3 xenograft study) and male Fox Chase SCID® mice (for HA22T-Luc xenograft study) of 7-week-old purchased from BioLASCO were housed in sterilized cages equipped with an air filter and sterile bedding materials at the Laboratory Animal Center of the National Health Research Institutes (NHRI), which is an AAALAC International accredited facility. All mice were fed with sterilized water and chow ad libitum under 12-hour light/12-hour dark cycle throughout the study. On the day of tumor cell inoculation, the number of viable cells was counted by using a hemocytometer with trypan blue staining under a light microscope. Cells were suspended in phenol red-free medium [RPMI1640 (H1299) or DMEM (HA22T-Luc)] or PBS (PC-3) and Matrigel™ (356237, Matrigel® Matrix, Corning, MA, United States) in 1:1 ratio. H1299 (1×10^6 cells), HA22T-Luc (5×10^6 cells) and PC-3 (1×10^6 cells) were implanted subcutaneously into the left flank of either nude or SCID mice using a 1 mL syringe (needle 24G×1 inch). Tumor dimensions were measured with a digital caliper, and the tumor volume in mm^3 was calculated by the formula: Volume=(length×width^∧2)/2. Tumor-bearing mice were grouped (n=5-8 per group) and administered when the average tumor volume was approximately at 200 mm^3. In the 3 individual xenograft studies, human IgG (HU-GF-ED, Lot#120916DG, Molecular Innovations, MI, USA), h7C3-4, h7C3-3-MMAE and h7C3-4-MMAE were diluted in 1× Dulbecco's Phosphate Buffered Saline (02-023-5A, Biological Industries, CT, USA) freshly before dosing at concentration of 2.5 mg/ml. Cisplatin (KEMOPLAT, 1 mg/mL, 87200009AA, Fresenius Kabi, Bad Homburg, Germany) was purchased. In the H1299 xenograft study, tumor-bearing mice were divided into 5 groups (6 mice per group): Human IgG −10 mg/Kg group (negative control), Cisplatin—7 mg/Kg group (positive control), h7C3-3-MMAE —10 mg/Kg group, h7C3-4 −10 mg/Kg group and h7C3-4-MMAE −10 mg/Kg group. The mice were intravenously injected with 4 mL/Kg of dose volume by tail vein twice per week for 3 weeks, except for the Cisplatin group, which was once per week for 3 weeks. In the HA22T-Luc xenograft study, tumor-bearing mice were divided into 3 groups (8 mice per group): Human IgG −10 mg/Kg group (negative control), h7C3-3-MMAE −10 mg/Kg group and h7C3-4-MMAE (ADC) −10 mg/Kg group. The mice were intravenously injected with 4 mL/Kg of dose volume by tail vein twice per week for 2 weeks. In the PC-3 xenograft study, tumor-bearing mice were divided into 2 groups: no treatment group (5 mice) and h7C3-4-MMAE (ADC) −10 mg/Kg (8 mice). The mice in h7C3-4-MMAE −10 mg/Kg group were intravenously injected with 4 mL/Kg of dose volume by tail vein twice per week for 3 weeks. Each treatment was based on the body weight. Body weight and tumor size were measured twice weekly.
Nude mice were subcutaneously inoculated with NTSR1-expressing cells, H1299 (1×10^6 cells per mouse). When the tumors reached a volume of 200 mm^3, the tumor-bearing mice were grouped (n=6) and administered intravenously with human IgG (negative control), h7C3-3-MMAE, h7C3-4 and h7C3-4-MMAE, respectively, at 10 mg/Kg twice weekly for six doses. The Cisplatin (positive control) was administered intravenously at 7 mg/Kg weekly for three doses.

Series [3] concerns HA22T-Luc liver tumor xenografts. In words: HA22T-Luc liver tumor xenograft model. The format is in vivo, SCID mice.
Description: as §2
To compare the anti-tumor efficacies of h7C3-3-MMAE and h7C3-4 MMAE, an experiment was performed with 5×10^6 HA22T-luc liver cancer cells inoculated subcutaneously to SCID mice. Tumor-bearing mice were divided into 3 groups (n=8). When the tumors reached a volume of 200 mm^3, 10 mg/Kg of human IgG, h7C3-3-MMAE and h7C3-4 MMAE were administered intravenously, respectively, twice weekly for four doses.

The test system of series [4] is NTSR1-expressing A549 cancer cells. In words: Internalization of h7C3-3 or h7C3-3-ADC in A549 cells (flow cytometry). The format is cell-based. Conditions: A549, 1 μg/ml, 37° C. for 90 minutes. Here is the method:
A total of 1×10^6 cells were reacted with the indicated antibody or ADC in 100 μL of FACS buffer for 60 minutes at 4° C. and washed to remove excess antibody or ADC. Cells were then transferred to 4° C. or 37° C. for 90 minutes. To determine the relative number of h7C3-3 or h7C3-3-ADC on the cell surface, cells were stained with saturating amounts of FITC (BD Pharmingen™) conjugated mouse anti-human IgG antibodies and incubated for additional 60 minutes on ice. Cells were washed again and followed by an additional incubation with 1 ml PBS containing 0.5 mg/mL propidium iodide at 4° C. for 10 minutes. Data were collected on 10,000 living cells by FACS (Bio-Red S3e cell sorter). Fluorescence intensity from channel FL-1 was calculated with Flow Jo flow cytometry analysis software. Preparation of anti-NTSR1 antibody-drug conjugates (ADCs)

The test system of a further series is Mahlavu. In words: In vitro cell cytotoxicity assay (CellTiter-Glo). The format is cell-based. Here is the method:
as §1

In the next series the test system is HA22T-Luc. In words: In vitro cell cytotoxicity assay (CellTiter-Glo). The format is cell-based. Here is the method: as §1
For the next series, the system named is H1299. In words: In vitro cell cytotoxicity assay (CellTiter-Glo). The format is cell-based. Here is the method: as §1
The test system of another series is HA22T. In words: In vitro cell cytotoxicity assay (CellTiter-Glo). The format is cell-based. Here is the method:
as §1

Where [5] appears, read: 10 mg/Kg i.v. twice weekly for four doses.

T1 sequence (P30989 whole entry): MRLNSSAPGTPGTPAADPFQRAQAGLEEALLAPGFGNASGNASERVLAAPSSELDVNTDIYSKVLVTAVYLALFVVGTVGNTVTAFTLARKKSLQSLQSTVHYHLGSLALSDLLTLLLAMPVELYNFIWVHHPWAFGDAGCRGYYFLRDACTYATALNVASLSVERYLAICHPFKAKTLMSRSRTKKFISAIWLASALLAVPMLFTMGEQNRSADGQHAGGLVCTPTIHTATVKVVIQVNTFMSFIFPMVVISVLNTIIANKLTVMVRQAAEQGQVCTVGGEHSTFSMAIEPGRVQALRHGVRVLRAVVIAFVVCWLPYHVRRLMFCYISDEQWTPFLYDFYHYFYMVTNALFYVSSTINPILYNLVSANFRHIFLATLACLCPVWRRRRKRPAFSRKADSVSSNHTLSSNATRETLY

B1: h7C3-4: h7C3-3 variant with S9T and D82E in VH and K79T in VL; VH SEQ ID NO: 13, VL SEQ ID NO: 14 (antibody, V domains shown)
VH: QVQLQQPGTVLVRPGASVKLSCKASGYAFTSSWIHWAKQRPGQGLEWIGQIRPNSGNTYYNEKFKVKATLTVDTSSSTAYVELSSLTSEDSAVYYCARYHYGFDYWGQGTLVTVSS
VL: DVLMTQTPLSLPVSLGDQASISCRSSQSIVHSNGNTYLEWYLQKPGQSPKLLIYKVSNRFSGVPDRFSGSGSGTDFTLTISRVEAEDLGVYYCFQGAHLPWTFGGGTKLEIKR
modifications: VH SEQUENCE; VL SEQUENCE
A word on the IC50: it is the point on the concentration scale where inhibition reaches its midpoint. Lower therefore signals greater potency in that assay. B1: the “isoelectric points (pI) compared to h7C3-3” value in “Isoelectric point (pI)” is listed as “lower”. Also, the “pharmacokinetics (overall)” value in series [1] (10 mg/kg) is on record as “better pharmacokinetics”. For the same molecule, the “clearance compared with h7C3-3” value in series [1] (single intravenous administration 10 mg/kg) was “significantly improved clearance”. In addition, the IC50 in the series on PC-3 and in the series on A549 was > 500 nM in each case.

B2: h7C3-3-MMAE: h7C3-3 conjugated with MMAE via cleavable valine-citrulline linker, average 3.8-4 MMAE per antibody (conjugate)
VH: QVQLQQPGSVLVRPGASVKLSCKASGYAFTSSWIHWAKQRPGQGLEWIGQIRPNSGNTYYNEKFKVKATLTVDTSSSTAYVDLSSLTSEDSAVYYCARYHYGFDYWGQGTLVTVSS
VL: DVLMTQTPLSLPVSLGDQASISCRSSQSIVHSNGNTYLEWYLQKPGQSPKLLIYKVSNRFSGVPDRFSGSGSGTDFTLKISRVEAEDLGVYYCFQGAHLPWTFGGGTKLEIKR
modifications: non-natural residues
notes: h7C3-3 conjugated with MMAE via cleavable valine-citrulline linker, average 3.8-4 MMAE per antibody
For the molecule B2, the “binding on cell surface” value in the series with NTSR1 on A549 cells was “have binding efficiency on cell surface”. The “tumor growth (tumor volume) until/on day 35” value in series [2] (10 mg/kg i.v. twice weekly for six doses) was “partial inhibition of the tumor growth”. Further, the body weight result is “did not show body weight loss” in series [2] (10 mg/kg, H1299 xenograft mice) and “did not show body weight loss” in series [3] (10 mg/kg, HA22T-Luc xenograft mice). Further, the “tumor volume on day 15” value in [3] (setting [5]) is reported as “tumor regression”. The “tumor volume until 36 days” value in series [3] (setting [5]) was “prolonged regression of tumor”. The internalization efficiency entry in [4] is “internalized efficiently”. In addition, the IC50 in the series with Mahlavu stood at 236 ± 6.9 nM; in the series on PC-3, 21.9 ± 2.04 nM; in the series with HA22T-Luc it was 39.4 ± 2.87 nM; in the series on H1299 it was 95.6 ± 2.02 nM; in the series with HA22T, 36.9 ± 3.04 nM; in the series with A549, 40.9 ± 1.63 nM.

The values above are taken from patent US12710427B2, “Anti-human neurotensin receptor 1 antibody and use thereof” (National Health Research Institutes, priority 2020, dated 2026).
